# Data: patent US20180282372
# T1: Aktide biosensor RRRRRSVDSHGGKbiotinGG (SEQ ID NO:11)
# T1 sequence: RRRRRSVDSHGGKGG
# T2: candidate biosensor peptide substrate WHLQTWCGYGGKbiotinGG (SEQ ID NO:12)
# T2 chain: WHLQTWCGYGGKGG
# B1: LKB1 serine/threonine kinase (Liver Kinase B1) (protein)
# chain: MEVVDPQQLGMFTEGELMSVGMDTFIHRIDSTEVIYQPRRKRAKLIGKYLMGDLLGEGSYGKVKEVLDSETLCRRAVKILKKKKLRRIPNGEANVKKEIQLLRRLRHKNVIQLVDVLYNEEKQKMYMVMEYCVCGMQEMLDSVPEKRFPVCQAHGYFCQLIDGLEYLHSQGIVHKDIKPGNLLLTTGGTLKISDLGVAEALHPFAADDTCRTSQGSPAFQPPEIANGLDTFSGFKVDIWSAGVTLYNITTGLYPFEGDNIYKLFENIGKGSYAIPGDCGPPLSDLLKGMLEYEPAKRFSIRQIRQHSWFRKKHPPAEAPVPIPPSPDTKDRWRSMTVVPYLEDLHGADEDEDLFDIEDDIIYTQDFTVPGQVPEEEASHNGQRRGLPKAVCMNGTEAAQLSTKSRAEGRAPNPARKACSASSKIRRLSACKQQ
# What was measured:
# [1] = test system: T1, Aktide biosensor RRRRRSVDSHGGKbiotinGG (SEQ ID NO:11)
# [2] = target: T2, candidate biosensor peptide substrate …
# [3] = target: the other five peptides (of six candidate biosensors peptides screened with LKB1)
Molecule,"phosphorylation of the peptide in a time-course in vitro kinase assay (MALDI/TOF/TOF-MS; 0, 30, 60, 120 min) [1]",phosphorylation of the peptide in an in vitro kinase assay (MALDI/TOF/TOF-MS) [1],phosphorylation of the peptide in an in vitro kinase assay (LC ESI-MS) [2],phosphorylation of the peptide in an in vitro kinase assay screen with LKB1 [3]
Akt serine/threonine kinase (protein kinase B),Nearly complete conversion to phosphorylated product was observed after 2 hr.,this peptide sequence is able to be efficiently phosphorylated by Akt over a 2 hr kinase assay,–,–
B1,–,–,this initial peptide sequence is able to be partially phosphorylated by LKB1 after a 3 hr reaction,"Out of these six, one sequence, WHLQTWCGYGGKbiotinGG (SEQ ID NO:12), was shown to be partially phosphorylated by LKB1 after a 3 hr reaction."
